Data on five substances can be found in PMC7535911.

Like-named read-outs stand apart in the source and are kept apart here.

Test [1] deals with ubiquitin-7-amino-4-methyl coumarin (Ub-AMC) (UniProt P0CG47).
Test [2] shares this target. The source holds these as a separate data set.

On to TYMV PRO/DUB E759A (enzyme), for which, in test [1], the DUB activity in vitro with Ub-AMC as substrate (Kapp, percent of WT) was 137 % of WT.
As to TYMV PRO/DUB N760A (enzyme), the DUB activity in vitro with Ub-AMC as substrate (Kapp, percent of WT) in test [1] is 135 % of WT.
For TYMV PRO/DUB N760A/R844A (enzyme), the DUB activity in vitro with Ub-AMC as substrate (Kapp, percent of WT) in test [2] is 344 % of WT.
The same measure, in the same setting: the result for TYMV PRO/DUB R844A (enzyme) reads 320 % of WT.
Consider TYMV PRO/DUB T763A (enzyme), for which the DUB activity in vitro with Ub-AMC as substrate (Kapp, percent of WT) in test [1] is 89 % of WT.
